T1: D2H receptor domain (human D2H transporter, amino acid residues 387-685), His-tag fusion protein (human, UniProt Q07837 387-685)
T1 construct: purified under denaturing conditions; also called recombinant D2H; not shown: poly-histidine tag (pET vector) at the NH2-terminal end
T1 sequence: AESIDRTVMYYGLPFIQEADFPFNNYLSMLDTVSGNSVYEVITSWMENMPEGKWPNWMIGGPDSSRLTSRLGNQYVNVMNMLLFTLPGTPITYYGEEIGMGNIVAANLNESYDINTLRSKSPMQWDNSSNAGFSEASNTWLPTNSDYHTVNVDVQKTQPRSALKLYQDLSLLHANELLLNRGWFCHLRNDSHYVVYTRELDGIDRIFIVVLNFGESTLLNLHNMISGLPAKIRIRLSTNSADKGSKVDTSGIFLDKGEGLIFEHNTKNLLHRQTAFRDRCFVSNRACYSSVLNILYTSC

B1: SNi28 (peptide)
peptide: SHSGGMNRAYGDVFRELRDRWNATSHHTRPTPQLPRGPNAETVESCLAKPHTENSFTNVWKDDKTLDRYANYEGCLWNATGVVVCTGDETQCYGTWVPIGLAIPENEGGGSEGGGSEGGGSEGGGTKPPEYGDTPIPGYTYINPLDGTYPPGTEQNPANPNPSLEESQPLNTFMFQNNRFRNRQGALTVYTGTVTQGTDPVKTYYQYTPVSSKAMYDAYWNGKFRDCAFHSGFNEDPFVCEYQGQSSDLPQPPVNAGGGSGGGSGGGSEGGGSEGGGSEGGGSEGGGSGGGSGSGDFDYEKMANANKGAMTENADENALQSDAKGKLDSVATDYGAAIDGFIGDVSGLANGNGATGDFAGSNSQMAQVGDGDNSPLMNNFRQYLPSLPQSVECRPFVFSAGKPYEFSIDCDKINLFRGVFAFLLYVATFMYVFSTFANILRNKES
notes: Assayed as M13 phage clone displaying the insert
B2: SNiAX6 (peptide)
peptide: RTTTAKGCLLGSFGVLSGCSFTPTSPPPHLGYPPHSVNAETVESCLAKPHTENSFTNVWKDDKTLDRYANYEGCLWNATGVVVCTGDETQCYGTWVPIGLAIPENEGGGSEGGGSEGGGSEGGGTKPPEYGDTPIPGYTYINPLDGTYPPGTEQNPANPNPSLEESQPLNTFMFQNNRFRNRQGALTVYTGTVTQGTDPVKTYYQYTPVSSKAMYDAYWNGKFRDCAFHSGFNEDPFVCEYQGQSSDLPQPPVNAGGGSGGGSGGGSEGGGSEGGGSEGGGSEGGGSGGGSGSGDFDYEKMANANKGAMTENADENALQSDAKGKLDSVATDYGAAIDGFIGDVSGLANGNGATGDFAGSNSQMAQVGDGDNSPLMNNFRQYLPSLPQSVECRPFVFSAGKPYEFSIDCDKINLFRGVFAFLLYVATFMYVFSTFANILRNKES
notes: as for B1
B3: SNi45 (peptide)
peptide: SGGEVSSWGRVNDLCARVSWTGCGTARSARTDNKGFLPKHSSLRAETVESCLAKPHTENSFTNVWKDDKTLDRYANYEGCLWNATGVVVCTGDETQCYGTWVPIGLAIPENEGGGSEGGGSEGGGSEGGGTKPPEYGDTPIPGYTYINPLDGTYPPGTEQNPANPNPSLEESQPLNTFMFQNNRFRNRQGALTVYTGTVTQGTDPVKTYYQYTPVSSKAMYDAYWNGKFRDCAFHSGFNEDPFVCEYQGQSSDLPQPPVNAGGGSGGGSGGGSEGGGSEGGGSEGGGSEGGGSGGGSGSGDFDYEKMANANKGAMTENADENALQSDAKGKLDSVATDYGAAIDGFIGDVSGLANGNGATGDFAGSNSQMAQVGDGDNSPLMNNFRQYLPSLPQSVECRPFVFSAGKPYEFSIDCDKINLFRGVFAFLLYVATFMYVFSTFANILRNKES
notes: as for B1
B4: SNiAX2 (peptide)
peptide: SDSDGDHYGLRGGVRCSLRDRGCGLALSTVHAGPPSFYPKLSSPAETVESCLAKPHTENSFTNVWKDDKTLDRYANYEGCLWNATGVVVCTGDETQCYGTWVPIGLAIPENEGGGSEGGGSEGGGSEGGGTKPPEYGDTPIPGYTYINPLDGTYPPGTEQNPANPNPSLEESQPLNTFMFQNNRFRNRQGALTVYTGTVTQGTDPVKTYYQYTPVSSKAMYDAYWNGKFRDCAFHSGFNEDPFVCEYQGQSSDLPQPPVNAGGGSGGGSGGGSEGGGSEGGGSEGGGSEGGGSGGGSGSGDFDYEKMANANKGAMTENADENALQSDAKGKLDSVATDYGAAIDGFIGDVSGLANGNGATGDFAGSNSQMAQVGDGDNSPLMNNFRQYLPSLPQSVECRPFVFSAGKPYEFSIDCDKINLFRGVFAFLLYVATFMYVFSTFANILRNKES
notes: as for B1
B5: SNi10 (peptide)
peptide: RVGQCTDSDVRRPWARSCAHQGCGAGTRNSHGCITRPLRQASAHAETVESCLAKPHTENSFTNVWKDDKTLDRYANYEGCLWNATGVVVCTGDETQCYGTWVPIGLAIPENEGGGSEGGGSEGGGSEGGGTKPPEYGDTPIPGYTYINPLDGTYPPGTEQNPANPNPSLEESQPLNTFMFQNNRFRNRQGALTVYTGTVTQGTDPVKTYYQYTPVSSKAMYDAYWNGKFRDCAFHSGFNEDPFVCEYQGQSSDLPQPPVNAGGGSGGGSGGGSEGGGSEGGGSEGGGSEGGGSGGGSGSGDFDYEKMANANKGAMTENADENALQSDAKGKLDSVATDYGAAIDGFIGDVSGLANGNGATGDFAGSNSQMAQVGDGDNSPLMNNFRQYLPSLPQSVECRPFVFSAGKPYEFSIDCDKINLFRGVFAFLLYVATFMYVFSTFANILRNKES
notes: as for B1
B6: SNi38 (peptide)
peptide: RGAADQRRGWSENLGLPRVGWDAIAHNSYTFTSRRPRPPAETVESCLAKPHTENSFTNVWKDDKTLDRYANYEGCLWNATGVVVCTGDETQCYGTWVPIGLAIPENEGGGSEGGGSEGGGSEGGGTKPPEYGDTPIPGYTYINPLDGTYPPGTEQNPANPNPSLEESQPLNTFMFQNNRFRNRQGALTVYTGTVTQGTDPVKTYYQYTPVSSKAMYDAYWNGKFRDCAFHSGFNEDPFVCEYQGQSSDLPQPPVNAGGGSGGGSGGGSEGGGSEGGGSEGGGSEGGGSGGGSGSGDFDYEKMANANKGAMTENADENALQSDAKGKLDSVATDYGAAIDGFIGDVSGLANGNGATGDFAGSNSQMAQVGDGDNSPLMNNFRQYLPSLPQSVECRPFVFSAGKPYEFSIDCDKINLFRGVFAFLLYVATFMYVFSTFANILRNKES
notes: as for B1
B7: DAX27 (peptide)
peptide: SHPWYRHWNHGDFSGSGQSRHTPPESPHPGRPNATIAETVESCLAKPHTENSFTNVWKDDKTLDRYANYEGCLWNATGVVVCTGDETQCYGTWVPIGLAIPENEGGGSEGGGSEGGGSEGGGTKPPEYGDTPIPGYTYINPLDGTYPPGTEQNPANPNPSLEESQPLNTFMFQNNRFRNRQGALTVYTGTVTQGTDPVKTYYQYTPVSSKAMYDAYWNGKFRDCAFHSGFNEDPFVCEYQGQSSDLPQPPVNAGGGSGGGSGGGSEGGGSEGGGSEGGGSEGGGSGGGSGSGDFDYEKMANANKGAMTENADENALQSDAKGKLDSVATDYGAAIDGFIGDVSGLANGNGATGDFAGSNSQMAQVGDGDNSPLMNNFRQYLPSLPQSVECRPFVFSAGKPYEFSIDCDKINLFRGVFAFLLYVATFMYVFSTFANILRNKES
notes: as for B1
B8: DAX15 (peptide)
peptide: SESGRCRSVSRWMTTWQTQKGGCGSNVSRGSPLDPSHQTGHATTAETVESCLAKPHTENSFTNVWKDDKTLDRYANYEGCLWNATGVVVCTGDETQCYGTWVPIGLAIPENEGGGSEGGGSEGGGSEGGGTKPPEYGDTPIPGYTYINPLDGTYPPGTEQNPANPNPSLEESQPLNTFMFQNNRFRNRQGALTVYTGTVTQGTDPVKTYYQYTPVSSKAMYDAYWNGKFRDCAFHSGFNEDPFVCEYQGQSSDLPQPPVNAGGGSGGGSGGGSEGGGSEGGGSEGGGSEGGGSGGGSGSGDFDYEKMANANKGAMTENADENALQSDAKGKLDSVATDYGAAIDGFIGDVSGLANGNGATGDFAGSNSQMAQVGDGDNSPLMNNFRQYLPSLPQSVECRPFVFSAGKPYEFSIDCDKINLFRGVFAFLLYVATFMYVFSTFANILRNKES
notes: as for B1
B9: SNi34 (peptide)
peptide: SPCGGSWGRFMQGGLFGGRTDGCGAHRNRTSASLEPPSSDYAETVESCLAKPHTENSFTNVWKDDKTLDRYANYEGCLWNATGVVVCTGDETQCYGTWVPIGLAIPENEGGGSEGGGSEGGGSEGGGTKPPEYGDTPIPGYTYINPLDGTYPPGTEQNPANPNPSLEESQPLNTFMFQNNRFRNRQGALTVYTGTVTQGTDPVKTYYQYTPVSSKAMYDAYWNGKFRDCAFHSGFNEDPFVCEYQGQSSDLPQPPVNAGGGSGGGSGGGSEGGGSEGGGSEGGGSEGGGSGGGSGSGDFDYEKMANANKGAMTENADENALQSDAKGKLDSVATDYGAAIDGFIGDVSGLANGNGATGDFAGSNSQMAQVGDGDNSPLMNNFRQYLPSLPQSVECRPFVFSAGKPYEFSIDCDKINLFRGVFAFLLYVATFMYVFSTFANILRNKES
notes: as for B1
B10: DAB30 (peptide)
peptide: SGFWEFSRGLWDGENRKSVRSGCGFRGSSAQGPCPVTPATIDKHAETVESCLAKPHTENSFTNVWKDDKTLDRYANYEGCLWNATGVVVCTGDETQCYGTWVPIGLAIPENEGGGSEGGGSEGGGSEGGGTKPPEYGDTPIPGYTYINPLDGTYPPGTEQNPANPNPSLEESQPLNTFMFQNNRFRNRQGALTVYTGTVTQGTDPVKTYYQYTPVSSKAMYDAYWNGKFRDCAFHSGFNEDPFVCEYQGQSSDLPQPPVNAGGGSGGGSGGGSEGGGSEGGGSEGGGSEGGGSGGGSGSGDFDYEKMANANKGAMTENADENALQSDAKGKLDSVATDYGAAIDGFIGDVSGLANGNGATGDFAGSNSQMAQVGDGDNSPLMNNFRQYLPSLPQSVECRPFVFSAGKPYEFSIDCDKINLFRGVFAFLLYVATFMYVFSTFANILRNKES
notes: as for B1
B11: DAX24 (peptide)
peptide: RMEDIKNSGWRDSCRWGDLRPGCGSRQWYPSNMRSSRDYPAGGHAETVESCLAKPHTENSFTNVWKDDKTLDRYANYEGCLWNATGVVVCTGDETQCYGTWVPIGLAIPENEGGGSEGGGSEGGGSEGGGTKPPEYGDTPIPGYTYINPLDGTYPPGTEQNPANPNPSLEESQPLNTFMFQNNRFRNRQGALTVYTGTVTQGTDPVKTYYQYTPVSSKAMYDAYWNGKFRDCAFHSGFNEDPFVCEYQGQSSDLPQPPVNAGGGSGGGSGGGSEGGGSEGGGSEGGGSEGGGSGGGSGSGDFDYEKMANANKGAMTENADENALQSDAKGKLDSVATDYGAAIDGFIGDVSGLANGNGATGDFAGSNSQMAQVGDGDNSPLMNNFRQYLPSLPQSVECRPFVFSAGKPYEFSIDCDKINLFRGVFAFLLYVATFMYVFSTFANILRNKES
notes: as for B1

Key:
[1] = target: T2, hSI receptor domain (human sucrase-isomaltase complex, amino acid residues 272-667), His-tag fusion protein (human, UniProt P14410 272-667); assay: phage ELISA, plate coated with hSI domain
T2 construct: also called hS1; recombinant hSI; not shown: poly-histidine tag (pET vector) at the NH2-terminal end
T2 sequence (P14410 272-667, one chain of several): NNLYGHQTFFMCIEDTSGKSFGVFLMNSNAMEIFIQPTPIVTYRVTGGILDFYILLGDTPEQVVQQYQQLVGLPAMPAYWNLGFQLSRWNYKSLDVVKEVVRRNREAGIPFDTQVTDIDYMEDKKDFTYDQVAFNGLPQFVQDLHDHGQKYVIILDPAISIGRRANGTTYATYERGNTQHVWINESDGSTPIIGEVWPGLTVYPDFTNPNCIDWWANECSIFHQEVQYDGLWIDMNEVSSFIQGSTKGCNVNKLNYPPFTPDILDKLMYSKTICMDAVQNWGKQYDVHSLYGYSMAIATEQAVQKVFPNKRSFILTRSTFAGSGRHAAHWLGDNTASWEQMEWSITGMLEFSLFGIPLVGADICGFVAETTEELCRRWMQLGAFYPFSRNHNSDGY
Experimental: (§1) 6.6. Receptor ELISA Procedure 96 well plates were coated overnight with GIT receptor, BSA and, optionally, IDE (insulin degrading enzyme, an irrelevant His-fusion protein)or hTF. The plates were blocked for one hour with 0.5% BSA-PBS. After clarification, the amplified phage were diluted 1:100 in […] plus 0.05% Tween 20 in PBS and added to the plates. Following incubation of the plates on a rotator for 1 to 2 hours, the plates were washed 5 times with 1% BSA plus 0.05% Tween 20 in PBS. […] After the plates were washed 5 times, as described above, TMB substrate was added to the wells. The plates were read at 650 nm absorbance.

[2] = target: T2, hSI receptor domain (human …); assay: phage ELISA, OD on hSI over OD on BSA
Experimental: as §1

[3] = target: T1, D2H receptor domain (human D2H …); assay: phage ELISA, plate coated with D2H domain
Experimental: as §1

Binder | OD [1] | hSI/BSA [2] | OD [3]
B1 | 0.942 OD | 8 ratio | –
B2 | 0.369 OD | 7 ratio | –
B3 | 0.518 OD | 9 ratio | –
B4 | 0.383 OD | 6 ratio | –
B5 | 0.57 OD | 11 ratio | –
B6 | 0.466 OD | 6 ratio | –
B7 | – | – | 1.58 OD
B8 | – | – | 0.391 OD
B9 | 0.761 OD | 7 ratio | –
B10 | – | – | 0.704 OD
B11 | – | – | 0.591 OD

Reference: patent US6703362 (CYTOGEN, dated 2004)
